The source of these data is the supplement of paper PMC11865577.

Holding throughout (assay): pull-down binding Z-score (relative to library population); higher = stronger binding
For series [1], the system named is G-clamp-N3 (biotin conjugate). The settings on record: RNA library: Library-1 (pre-miRNA loops + repeats). In short, it runs like this:
(§1)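 Streptavidin beads with 100 pmol of biotin-conjugated small molecule were incubated for 60 min at 25 °C with 1 μg of heat-folded Cy5- or Cy3-end-labelled RNA library in phosphate/NaCl/KCl buffer. Bound RNA was eluted in hot SDS after three washes and hybridised to a DNA barcode microarray at 55.5 °C for 20 h. Each binding score is a library-referenced Z-score, computed after beads-only subtraction and a trimmed mean of barcoded replicate probes.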

The subject of series [2] is TO-3-N3 (biotin conjugate). The settings on record: RNA library: Library-2. Put shortly:
as §1

Series [3] deals with TO-3-N3-2 (biotin conjugate). The settings on record: RNA library: Library-2. Put shortly: as §1
Another series relates to TO-N3 (biotin conjugate). The following applies: RNA library: Library-2. In short, it runs like this: as §1
The subject of series [4] is TO-N3-2 (biotin conjugate). The settings on record: RNA library: Library-2. Put shortly:
as §1

For the sequence “CUAAUCUCUUAGCACUGAAGAUUAG [hsa-mir-4671]”, the “pull-down binding Z-score” value was -0.0111 in series [1]; 0.0266 in series [2]; -0.253 in series [3]; -0.125 in the series on TO-N3 (biotin conjugate); -0.473 in series [4].

On to “UGCCAUUAAAAGUAAUGGCA [hsa-mir-548i-3_548i-2_548i-1]”, for which the “pull-down binding Z-score” value was 1.22 in series [1]; 0.489 in series [2]; -0.048 in series [3]; 0.141 in the series with TO-N3 (biotin conjugate); -0.409 in series [4].

For the sequence “ACAGCAGUCUUACUGAAGGUUUCCUGGAAACCACGCACAUGCUGU [hsa-mir-744]”, the “pull-down binding Z-score” value in series [1] is -0.613; in series [2], -0.304; in series [3] it was -0.233; with TO-N3 (biotin conjugate) it was -0.165; in series [4], -0.5.

As to GCCAGAUGCUGAGCGAUGGC [hsa-mir-4730], the “pull-down binding Z-score” value is 0.503 in series [1]; -0.32 in series [2]; -0.12 in series [3]; -0.217 with TO-N3 (biotin conjugate); 0.603 in series [4].

In the case of “GCAUAAAAACAACUUUUGGGGGACAGGUAUGUUUUCUUGC [hsa-mir-5047]”, the “pull-down binding Z-score” value came to 0.0757 in series [1]; 2.96 in series [2]; 2.38 in series [3]; 2.3 in the series on TO-N3 (biotin conjugate); 0.797 in series [4].

Turning to “GGGACGUGUGAUGCUGUGCUUCCU [hsa-mir-3689f]”, the “pull-down binding Z-score” value in series [1] was -0.338; in series [2], -0.469; in series [3] it was -0.0333; in the series with TO-N3 (biotin conjugate), -0.185; in series [4], 0.502.

Turning to “GGAACACUAUAUUAAUCAGGUUUCC [hsa-mir-6509]”, the “pull-down binding Z-score” value in series [1] was -0.0674; in series [2], -0.609; in series [3], -0.256; with TO-N3 (biotin conjugate), -0.631; in series [4], -0.706.

Take “CAUUGUAAUAGUUCAUAUGGGCACUG [hsa-mir-3660]”: the “pull-down binding Z-score” value was 2.34 in series [1]; -0.0141 in series [2]; -0.109 in series [3]; 0.0211 in the series on TO-N3 (biotin conjugate); 0.0148 in series [4].

Turning to “UCCCAGGAAAUUCACUUUAGGAAGUCCUAGGA [hsa-mir-5571]”, the “pull-down binding Z-score” value in series [1] is 0.804; in series [2] it was -0.734; in series [3] it was -0.303; in the series on TO-N3 (biotin conjugate), -1.1; in series [4] it was -1.41.

With UUUUGUCUGA [hsa-mir-553], the “pull-down binding Z-score” value was -1.4 in series [1]; -0.414 in series [2]; -0.242 in series [3]; -0.549 with TO-N3 (biotin conjugate); -0.491 in series [4].

Turning to AGGCUCUGCAAGAUCAACCGAGCA [hsa-mir-330], the “pull-down binding Z-score” value is -0.474 in series [1]; 0.196 in series [2]; 0.141 in series [3]; 0.492 in the series on TO-N3 (biotin conjugate); 0.739 in series [4].

In the case of “GGAUGUGUUGACCCCUGAAGUGGUUCUGAUGACCUUUCC [hsa-mir-6883]”, the “pull-down binding Z-score” value in series [1] is -1.11; in series [2], 0.00863; in series [3], -0.03; in the series on TO-N3 (biotin conjugate) it was 0.387; in series [4], 0.938.

With GAAUGAAAAAAUGAAUCAUC [hsa-mir-421], the “pull-down binding Z-score” value was 0.509 in series [1]; -0.311 in series [2]; 0.0689 in series [3]; -0.29 with TO-N3 (biotin conjugate); -0.0724 in series [4].

As for AGAUGAAAUGCCUUUGAUUU [hsa-mir-3658], the “pull-down binding Z-score” value is -1.49 in series [1]; -0.497 in series [2]; -0.388 in series [3]; -0.715 with TO-N3 (biotin conjugate); -0.505 in series [4].

As for “AUAGCACAAAGUCUUAUGGUACUGU [hsa-mir-3169]”, the “pull-down binding Z-score” value in series [1] is 1.12; in series [2] it was 0.174; in series [3], 0.253; in the series on TO-N3 (biotin conjugate), 0.199; in series [4] it was -0.178.

Turning to GUUUACGUGAUUCCUGGUUAAUC [hsa-mir-376b], the “pull-down binding Z-score” value in series [1] was 0.375; in series [2], -0.121; in series [3], -0.0636; in the series with TO-N3 (biotin conjugate) it was -0.0962; in series [4], -0.0759.

For the sequence “GGUGGGUGGGAAGUAAGAUCUGACCUGGACUCCAUCCCACCCACC [hsa-mir-4640]”, the “pull-down binding Z-score” value in series [1] was found to be 0.122; in series [2] it was 4.87; in series [3], 4.64; in the series with TO-N3 (biotin conjugate), 5.35; in series [4], 4.38.

Consider “GAGUCCUAUUUAUUUUUAGGAUAUUAGGAA [hsa-mir-5692c-2]”, for which the “pull-down binding Z-score” value in series [1] was -0.397; in series [2] it was -0.421; in series [3], -0.148; in the series on TO-N3 (biotin conjugate), -0.394; in series [4], -0.62.
